Measurements taken from US20240101668A1.

Key:
[1] = target: huFLT3-T227 stably expressed on Ramos cells (human) (UniProt P36888); test: FACS on cells
[2] = target: huFLT3-M227 stably expressed on Ramos cells (human) (UniProt P36888); test: FACS on cells

Row | Binder | FACS geometric mean fold change over Jurkat parental [1] [fold] | FACS geometric mean fold change over Jurkat parental [2] [fold]
1 | Polypeptide No. 255 (scFv, V domains shown) VH: QVQLVQSGAEVKKPGSSVKVSCKASGYTLTELSMHWVRQAPGQGLEWMGGIIPISGTVTYAQKFQGRVTITADESTSTAYMELSSLRSEDTAVYYCANKGQQLVRGYFQHWGQGTLVTVSS VL: DIQMTQSPSSLSASVGDRVTITCQASHDIRNSVNWYQQKPGKAPKLLIYATSSLQSGVPSRFSGSGSGTDFTLTISSLQPEDFATYYCQQSYNTPFTFGQGTKLEIKR | < 2 | < 2
2 | Polypeptide No. 258 (scFv, V domains shown) VH: QVQLVQSGAEVKKPGASVKVSCKASGGTFGSYAISWVRQAPGQGLEWMGWINPNTGGAHYAQKFQGRVTMTRDTSTSTVYMELSSLRSEDTAVYYCARVGAAAGYQHWGQGTLVTVSS VL: DIQMTQSPSSLSASVGDRVTITCRASQSIKGALAWYQQKPGKAPKLLIYSASNLQSGVPSRFSGSGSGTDFTLTISSLQPEDFATYYCQQYNSYPLTFGGGTKVEIKR | < 2 | < 2
3 | Polypeptide No. 264 (scFv, V domains shown) VH: QVQLVQSGAEVKKPGSSVKVSCKASGYTLTELSMHWVRQAPGQGLEWMGGIIPISSATSIPQKFQGRVTITADESTSTAYMELSSLRSEDTAVYYCARGALYSSSPVRVVAGTKGWFDPWGQGTLVTVSS VL: DIQMTQSPSSLSASVGDRVTITCRASQDISNYLAWYQQKPGKAPKLLIYAASSLQSGVPSRFSGSGSGTDFTLTISSLQPEDFATYYCQQYYSYPLTFGGGTKVEIKR | < 2 | < 2
4 | Polypeptide No. 266 (scFv, V domains shown) VH: QVQLVQSGAEVKKPGSSVKVSCKASGYSLTELSIHWVRQAPGQGLEWMGGINPISGTANYAQKFQGRVTITADESTSTAYMELSSLRSEDTAVYYCARGTVRLNWFDPWGQGTLVTVSS VL: EIVMTQSPATLSVSPGERATLSCRASQSVGSQLGWYQQKPGQAPRLLIYGASTRATGIPARFSGSGSGTEFTLTISSLQSEDFAVYYCQQSFSTPLTFGGGTKVEIKR | < 2 | < 2
5 | Polypeptide No. 267 (scFv, V domains shown) VH: QVQLVQSGAEVKKPGSSVKVSCKASGYTLTSFGISWVRQAPGQGLEWVGMIIPLSGTTHYAQKFQGRVTITADESTSTAYMELSSLRSEDTAVYYCANLYGGNAYYYYGMDVWGQGTTVTVSS VL: DIQMTQSPSSLSASVGDRVTITCRASQDISNFVAWYQQKPGKAPKLLIYAASSLQSGVPSRFSGSGSGTDFTLTISSLQPEDFATYYCQQSFDTPYTFGQGTKLEIKR | < 2 | < 2
6 | Polypeptide No. 277 (scFv, V domains shown) VH: QVQLVQSGAEVKKPGSSVKVSCKASGYTFTGYYMHWVRQAPGQGLEWMGWIDPNSGGTNYAQKFQGRVTITADESTSTAYMELSSLRSEDTAVYYCARDVDTAMVTDYWGRGTLVTVSS VL: EIVMTQSPATLSVSPGERATLSCRASQSVDNLVGWYQQKPGQAPRLLIYDISSRATGIPARFSGSGSGTEFTLTISSLQSEDFAVYYCQQYGRSPITFGQGTRLEIKR | < 2 | < 2
7 | Polypeptide No. 289 (scFv, V domains shown) VH: QVQLVQSGAEVKKPGASVKVSCKASGYTFTSYGISWVRQAPGQGLEWMGWMNPISGNTDYAPNFQGRVTMTRDTSTSTVYMELSSLRSEDTAVYYCVVERRREVGMDVWGQGTTVTVSS VL: DIQMTQSPSSLSASVGDRVTITCQASQGITSYLNWYQQKPGKAPKLLIYKASSLESGVPSRFSGSGSGTDFTLTISSLQPEDFATYYCQQGYSTPLTFGGGTKVEIKR | < 2 | < 2
